The numbers were not newly measured in PMC9147092, which cites them from elsewhere.

Usually pKd stands for −log10 of the Kd, conventionally taken in molar units.

pKd: −log10 of the molar value. Read-outs that look alike come from different tables or passages of the source.

Data set [1] concerns the target BiP (Homo sapiens) (UniProt P11021).
For a further data set, the target named is ERdj2 (Homo sapiens) (UniProt Q9UGP8).
In data set [2] the target is BiP (Homo sapiens) (UniProt P11021). The source holds these as a separate data set.
For data set [3] the target is unchanged. This is another data set of the same source.

Sequence of UniProt P11021 (P11021 19-654): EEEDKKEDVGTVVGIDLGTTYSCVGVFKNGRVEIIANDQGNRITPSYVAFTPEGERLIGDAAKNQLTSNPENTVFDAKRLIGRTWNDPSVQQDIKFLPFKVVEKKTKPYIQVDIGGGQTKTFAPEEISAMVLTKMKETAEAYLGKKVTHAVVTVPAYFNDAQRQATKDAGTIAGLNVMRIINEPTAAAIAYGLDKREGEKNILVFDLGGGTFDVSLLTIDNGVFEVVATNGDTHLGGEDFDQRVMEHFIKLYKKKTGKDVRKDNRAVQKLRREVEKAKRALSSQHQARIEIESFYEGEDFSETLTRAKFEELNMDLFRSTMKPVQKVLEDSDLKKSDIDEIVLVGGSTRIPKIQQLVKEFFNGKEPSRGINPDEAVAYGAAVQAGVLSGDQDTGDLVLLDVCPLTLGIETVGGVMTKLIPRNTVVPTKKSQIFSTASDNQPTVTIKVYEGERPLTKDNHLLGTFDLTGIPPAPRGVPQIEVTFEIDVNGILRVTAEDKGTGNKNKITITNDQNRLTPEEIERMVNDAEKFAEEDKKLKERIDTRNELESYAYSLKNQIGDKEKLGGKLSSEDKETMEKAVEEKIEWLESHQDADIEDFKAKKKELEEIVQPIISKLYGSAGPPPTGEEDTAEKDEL
Sequence of UniProt Q9UGP8 (Q9UGP8 whole entry): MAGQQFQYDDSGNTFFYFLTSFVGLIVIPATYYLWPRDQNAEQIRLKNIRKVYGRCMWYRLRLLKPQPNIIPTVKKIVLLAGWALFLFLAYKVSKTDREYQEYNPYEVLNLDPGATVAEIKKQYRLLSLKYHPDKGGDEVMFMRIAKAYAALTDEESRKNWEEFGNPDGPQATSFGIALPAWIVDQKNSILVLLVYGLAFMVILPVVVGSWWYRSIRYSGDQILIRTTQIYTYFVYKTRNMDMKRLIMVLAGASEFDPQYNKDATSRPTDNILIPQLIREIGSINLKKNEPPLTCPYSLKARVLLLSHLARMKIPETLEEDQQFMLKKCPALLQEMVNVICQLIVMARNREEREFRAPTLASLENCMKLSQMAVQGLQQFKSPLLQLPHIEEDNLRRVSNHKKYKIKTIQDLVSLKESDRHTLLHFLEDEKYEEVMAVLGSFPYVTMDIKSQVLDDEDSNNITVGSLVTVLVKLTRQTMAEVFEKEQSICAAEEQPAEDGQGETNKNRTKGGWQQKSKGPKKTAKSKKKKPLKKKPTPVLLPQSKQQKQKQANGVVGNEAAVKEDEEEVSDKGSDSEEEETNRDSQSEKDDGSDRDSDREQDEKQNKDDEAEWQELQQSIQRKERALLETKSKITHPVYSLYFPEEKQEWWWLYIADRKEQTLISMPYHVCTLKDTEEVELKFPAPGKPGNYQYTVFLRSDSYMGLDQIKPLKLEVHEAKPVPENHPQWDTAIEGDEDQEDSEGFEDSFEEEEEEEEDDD

Take “PERK luminal domain (from UniProt Q9NZJ5)”: the negative logarithm of the Kd (pKd) with BiP (Homo sapiens) [1] was 6.08.

Sec62 (from UniProt Q99442): the negative-log Kd (pKd) in the data set with ERdj2 (Homo sapiens) was 8.30. For the substance ERdj1 (from UniProt Q96KC8), the pKd with BiP (Homo sapiens) [2] is 6.24. Regarding ERdj6 (from UniProt Q13217), the pKd in the data set with BiP (Homo sapiens) [3] was 5.30.
